Assay results from patent publication US20130028895A1, “EXOSOME INHIBITING AGENTS AND USES THEREOF” (priority 2011, published 2013).

What was measured:
exosomal CD20 = biological target: T1, exosomal CD20 (Homo sapiens, UniProt P11836); assay: Binding of therapeutic anti-CD20 antibodies to lymphoma exosomes (immunogold, Western blot, FACS of exosome-labelled beads); conditions: purified exosome-labelled beads, Su-DHL-4
T1 construct: endogenous in cells; host or cells: exosomes purified from culture supernatants of Balm-3 and Su-DHL-4 lymphoma cells
T1 sequence (P11836 1-297): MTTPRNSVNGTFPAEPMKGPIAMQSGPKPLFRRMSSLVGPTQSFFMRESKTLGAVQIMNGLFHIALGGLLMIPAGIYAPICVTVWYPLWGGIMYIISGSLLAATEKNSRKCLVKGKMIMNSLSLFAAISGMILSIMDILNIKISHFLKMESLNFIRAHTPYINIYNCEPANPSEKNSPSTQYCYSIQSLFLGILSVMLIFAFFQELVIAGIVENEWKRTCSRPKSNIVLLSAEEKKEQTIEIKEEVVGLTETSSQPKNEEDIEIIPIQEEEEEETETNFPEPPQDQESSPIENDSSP
Experimental: Cells or exosomes coupled to beads were stained with fluorescence-labelled monoclonal antibodies, and analyzed by flow cytometry.
FACS analysis of exosomal surface proteins was carried out after exosomes were coupled to latex beads as previously described (Thery, C., Zitvogel, L., & Amigorena, S, Nat. Rev. Immunol. 2, 569-579 (2002)). Exosomes (40 μg protein) were incubated in 30 μl PBS with 4 μm aldehyde/sulfate latex beads (3 μl of a 4% w/v suspension, Invitrogen) for 15 min., and again for 2 h after addition of 500 μl PBS at room temperature (RT) under constant agitation. The reaction was stopped by addition of 100 μl 1M glycine for 30 min. at RT with gentle agitation, followed by three washes in PBS/0.5% w/v bovine serum albumin (BSA). Antibody staining followed the protocols for antibody staining of cells in suspension.
Detection of membrane-bound fluorescence were performed using standard protocols for flow cytometry. 1×10^5 cells per condition were washed once with PBS and thereafter incubated for 30 min at room temperature and protected from light with either primary antibody or isotype control (both 1:50).

OCI-Ly1 lymphoma cells = assay: Inhibition of exosome shedding by inhibitors (AChE activity, flotillin-2 Western blot); assay type: cell-based, human; conditions: non-toxic dose ranges, 24 h
Experimental: (§1) […] lymphoma cells were exposed to inhibitors of exosome synthesis or release at non-toxic dose ranges. Exosomes were harvested after a 24 h incubation period, and yields were measured by AChE activity (a) and detection of flotillin-2 by Western Blot (b). […] Significant differences to controls without inhibitors (one-way ANOVA with Dunn's post test) are marked with asterices, equivalent results were obtained for the cell lines Balm-3 and Su-DHL-4 (FIG. 10).
5×10^7 lymphoma cells were exposed to inhibitors of exosome synthesis or release at non-toxic dose ranges. Exosomes were harvested after a 24 h incubation period, and yields were measured by AChE activity. Significant differences to controls without inhibitors (one-way ANOVA) are marked with asterices.
(§2) Exosomes were prepared by differential centrifugation according to standard protocols (modified according to Valadi, H. et al. Nat. Cell Biol. 9, 654-659 (2007)). […] Exosomes were quantified by measuring whole protein according to standard protocols (BioRad-DC-Protein-Assay), Western blot detecting flotillin-2 in comparison with whole cells or control exosome preparations, and acetyl-cholin-esterase (AChE) activity as previously described (Savina, A., Fader, C. M., Damiani, M. T., & Colombo, M. I. Traffic. 6, 131-143 (2005)).

lymphoma cells = assay: CDC susceptibility: inhibitors plus rituximab with 10% active human complement; assay type: cell-based; conditions: concomitant incubation with rituximab
Experimental: as §1
(§3) After 24 hours at 37° C., cell viability was determined in triplicates by […] staining as described before. The effect on viability was expressed as the ratio of values from treated versus untreated samples, i.e. specific viability=100× absorbance with antibody treatment/absorbance of untreated control. To detect complement decomposition of C3 in supernatant of exosome coupled to beads, monoclonal antibody 13/15 was coated onto 96-well Medisorp plates (NUNC, Medisorp, Thermo Fisher Scientific) blocked, and washed. Subsequently, appropriately diluted supernatant of exosome:bead complex samples were added to the plate for 60 minutes, washed, and incubated with rabbit anti-C3d for 60 min. After washing, finally anti-rabbit Fc conjugated to horseradish peroxidase (anti-rFc-HRP) was added for 60 minutes, before a further washing and addition of TMB substrate solution. […]

lymphoma cell lines = assay: CDC susceptibility after RNAi silencing of ABCA3; assay type: cell-based, human; conditions: rituximab in the presence of complement, vs lv GFP control
Experimental: (§4) The effects were measured after incubation for 48 h by AChE activity (b, cell line Balm-3, significance tested by one-way ANOVA), whole exosomal protein (c, significance tested by Student's two-sample t-test), as well as flotillin-2 detection from exosome preparations in the cell culture supernatant (d). Addressing ABCA3 overexpression, 4×10^7 cells of HEK293A, the stable ABCA3 overexpressing cell line HEK293A-ABCA3, as well as K562 cells were incubated for 17 h in 36 ml of exosome-free cell culture medium, and exosome yields measured as total exosomal protein.
as §3, with “min.” for “min. After washing, finally anti-rabbit Fc conjugated to horseradish peroxidase (anti-rFc-HRP) was added for 60 minutes, before a further washing and addition of TMB substrate solution.”

ABCA3 = assay: Exosome release after silencing of ABCA3 by lentiviral shRNA; assay type: cell-based, human
Experimental: as §4
As small molecules were used at the concentrations indicated: mTOR inhibitor rapamycin, COX-2 inhibitor indometacin, cholesterol synthesis inhibitor U18666A (all from Sigma). As fluorescent dyes CalceinAM and PKH26 were applied (both from Molecular Probes). […]
as §2

## GA101: therapeutic anti-CD20 monoclonal antibody (type II, Roche)
Exosomal CD20
  exosomal binding by FACS: Exosomal binding

## CCN(CC)CCO[C@H]1CC[C@@]2(C)C(=CC[C@@H]3[C@@H]2CC[C@]2(C)C(=O)CC[C@@H]32)C1 [U18666A]
OCI-Ly1 lymphoma cells
  exosome shedding / release: Inhibition of Exosome Shedding
Lymphoma cells
  CDC susceptibility / cytolytic activity of rituximab: Enhanced CDC Susceptibility

B1: anti-ABCA3 shRNA: lentiviral shRNA silencing ABCA3, sequences SEQ ID NO: 1 and SEQ ID NO: 2 cloned into pLKO.1 (nucleic acid)
chain 1: CCGGGCCCAGCTCATTGGGAAATTTCTCGAGAAATTTCCCAATGAGCTGGGCTTTTTG
chain 2: AATTCAAAAAAAATTTCCCAATGAGCTGGGCCTCGAGGCCCAGCTCATTGGGAAATTT
modifications: the letters are possibly those of the target site
Lymphoma cell lines; listed as lentiviral RNAi
  susceptibility to CDC: significantly increased the susceptibility of the lymphoma cells to CDC-mediated lysis
Lymphoma cell lines; listed as shRNA against ABCA3
  susceptibility to CDC: increased susceptibility of lymphoma cell lines to CDC
ABCA3; 48 h, AChE activity, whole exosomal protein, flotillin-2, Balm-3
  exosome release vs mock transfected controls: decreased exosome release
ABCA3; Balm-3, Su-DHL-4 and OCI-Ly1
  reduction of exosome release: approximately 50%
